Results: PMC9331606 (2022)

B1: Halo-tagged human cytomegalovirus immediate early 1 protein (hIE1) [human cytomegalovirus (HCMV)] / NanoLuciferase-tagged human promyelocytic leukemia protein (hPML) [human] (parent complex)
chain 1: MESSAKRKMDPDNPDEGPSSKVPRPETPVTKATTFLQTMLRKEVNSQLSLGDPLFPELAEESLKTFEQVTEDCNENPEKDVLAELVKQIKVRVDMVRHRIKEHMLKKYTQTEEKFTGAFNMMGGCLQNALDILDKVHEPFEEMKCIGLTMQSMYENYIVPEDKREMWMACIKELHDVSKGAANKLGGALQAKARAKKDELRRKMMYMCYRNIEFFTKNSAFPKTTNGCSQAMAALQNLPQCSPDEIMAYAQKIFKILDEERDKVLTHIDHIFMDILTTCVETMCNEYKVTSDACMMTMYGGISLLSEFCRVLCCYVLEETSVMLAKRPLITKPEVISVMKRRIEEICMKVFAQYILGADPLRVCSPSVDDLRAIAEESDEEEAIVAYTLATAGVSSSDSLVSPPESPVPATIPLSSVIVAENSDQEESEQSDEEEEEGAQEEREDTVSVKSEPVSEIEEVAPEEEEDGAEEPTASGGKSTHPMVTRSKADQ
chain 2: MEPAPARSPRPQQDPARPQEPTMPPPETPSEGRQPSPSPSPTERAPASEEEFQFLRCQQCQAEAKCPKLLPCLHTLCSGCLEASGMQCPICQAPWPLGADTPALDNVFFESLQRRLSVYRQIVDAQAVCTRCKESADFWCFECEQLLCAKCFEAHQWFLKHEARPLAELRNQSVREFLDGTRKTNNIFCSNPNHRTPTLTSIYCRGCSKPLCCSCALLDSSHSELKCDISAEIQQRQEELDAMTQALQEQDSAFGAVHAQMHAAVGQLGRARAETEELIRERVRQVVAHVRAQERELLEAVDARYQRDYEEMASRLGRLDAVLQRIRTGSALVQRMKCYASDQEVLDMHGFLRQALCRLRQEEPQSLQAAVRTDGFDEFKVRLQDLSSCITQGKDAAVSKKASPEAASTPRDPIDVDLPEEAERVKAQVQALGLAEAQPMAVVQSVPGAHPVPVYAFSIKGPSYGEDVSNTTTAQKRKCSQTQCPRKVIKMESEEGKEARLARSSPEQPRPSTSKAVSPPHLDGPPSPRSPVIGSEVFLPNSNHVASGAGEAEERVVVISSSEDSDAENSSSRELDDSSSESSDLQLEGPSTLRVLDENLADPQAEDRPLVFFDLKIDNETQKISQLAAVNRESKFRVVIQPEAFFSIYSKAVSLEVGLQHFLSFLSSMRRPILACYKLWGPGLPNFFRALEDINRLWEFQEAISGFLAALPLIRERVPGASSFKLKNLAQTYLARNMSERSAMAAVLAMRDLCRLLEVSPGPQLAQHVYPFSSLQCFASLQPLVQAAVLPRAEARLLALHNVSFMELLSAHRRDRQGGLKKYSRYLSLQTTTLPPAQPAFNLQALGTYFEGLLEGPALARAEGVSTPLAGRGLAERASQQS

Variants of: B1
Assay: NanoBRET; HEK293T cells transfected 24 h; 4 h incubation with Halo ligand; detection time 5 s at 618 nm and 448 nm; parent: 23; read off a plot

Variant | response
chain 1 MESSAKRKMDPDNPDEGPSSKVPRPETPVTKATTFLQTMLRKEVNSQLSLGDPLFPELAEESLKTFEQVTEDCNENPEKDVLAELVKQIKVRVDMVRHRIKEHMLKKYTQTEEKFTGAFNMMGGCLQNALDILDKVHEPFEEMKCIGLTMQSMYENYIVPEDKREMWMACIKEPHDVSKGAANKLGGALQAKARAKKDELRRKMMYMCYRNIEFFTKNSAFPKTTNGCSQAMAALQNLPQCSPDEIMAYAQKIFKILDEERDKVLTHIDHIFMDILTTCVETMCNEYKVTSDACMMTMYGGISLLSEFCRVLCCYVLEETSVMLAKRPLITKPEVISVMKRRIEEICMKVFAQYILGADPLRVCSPSVDDLRAIAEESDEEEAIVAYTLATAGVSSSDSLVSPPESPVPATIPLSSVIVAENSDQEESEQSDEEEEEGAQEEREDTVSVKSEPVSEIEEVAPEEEEDGAEEPTASGGKSTHPMVTRSKADQ [chain 1 L174P] | ~1.2 mBU
